Laboratory results reported in PMC4100105, “A Novel VHH Antibody Targeting the B Cell-Activating Factor for B-Cell Lymphoma” (International Journal of Molecular Sciences, 2014).

How the values were obtained:
[1] = molecular target: T1, B cell-activating factor (BAFF) (UniProt Q9Y275, biotin (NHS-LC-Biotin, 3:1 molar ratio of biotin to protein) in the BLI assay; not biotinylated when coated on ELISA plates)
Target sequence in this assay (Q9Y275 134-285): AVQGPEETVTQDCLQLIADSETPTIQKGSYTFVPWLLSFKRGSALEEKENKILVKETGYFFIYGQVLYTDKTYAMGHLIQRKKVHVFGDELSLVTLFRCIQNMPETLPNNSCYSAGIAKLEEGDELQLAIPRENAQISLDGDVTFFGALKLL

[2] = molecular target: T1, B cell-activating factor (BAFF); assay: ELISA; competition ELISA; BAFF (10 ug/mL) coated; sdAb (0-100 ug/mL) mixed with TACI (10 ug/mL), 2 h at 37 C; bound TACI detected with HRP goat anti-human IgG; settings: both partners purified
[3] = molecular target: T1, B cell-activating factor (BAFF); assay: cell-based or functional assay
[4] = molecular target: T1, B cell-activating factor (BAFF); assay: BLI; Octet RED; biotinylated BAFF (20 ug/mL) loaded on streptavidin biosensors; sdAbs 1.25-20 uM as analyte; PBST (PBS pH 7.4, 0.1% BSA, 0.02% Tween-20); room temperature; association 300 s, dissociation 1500 s; global 1:1 fit; 'relative affinity'; settings: both partners purified
[5] = molecular target: T1, B cell-activating factor (BAFF); assay: ELISA; competition ELISA; BAFF (10 ug/mL) coated; sdAb (0-500 ug/mL) mixed with BCMA (50 ug/mL), 2 h at 37 C; bound BCMA detected with HRP goat anti-human IgG; settings: both partners purified

| Binder | binding result [1] | Kd [4] [nM] | koff [4] [s⁻¹] | kon [4] [M⁻¹ s⁻¹] | other results |
| --- | --- | --- | --- | --- | --- |
| baff41 (VHH) VHH: HVQLVDSGGGLVQPGGSLRLSCTASGRTFRDYAMGWFRQAPGKEREFVAAIIGRGASTQYADFVKGRFTISRDNAKNTVYLQMNSLRPEDTAVYYCHAYDPRRNGDYWGQGTQVTVSS | binds | – | – | – | – |
| baffb2 (VHH) VHH: HVQLVDSGGGLVQAGGSLRLSCAASGRSFRRYAMAWFRQTPGKEREFVAAISRSGGSTSYADSVKGRFTISRDNVKNTVYLQMNSLKPEDTAIYYCAADRWGSPTDLRLPRELDYWGQGTHVTVSS | binds | – | – | – | – |
| baffb11 (VHH) VHH: HVQLVDSGGGLVQAGGSLRLSCAASGRTFSSYAMGWFRQAPGKEREFVAAISWSGGRTYYADSVKGRFTISRNNAKNTVYLQMNNLKPEDAAVYYCAARSRASLSGTPLSSPSYYRYWGQGTQVTVSS | binds | – | – | – | – |
| baffc6 (VHH) VHH: HVQLVDSGGGLVQAGGSLRLSCAAPRNTFSRYAMAWYRQAPGKRRESVASISSGGISHYTDSVKGRFTISRDNAKNTVYLQMNSLKPEDSAVYYCAASREWGLLRHRPGYWGQGTQVTVSS | binds | – | – | – | – |
| bafff4 (VHH) VHH: HVQLVDSGGGLVQAGGSLRLSCTVSGRTSRYAMAWFRQAPGKGREFVAGVNRSGGRPNYSNSVKGRFTISRDNAKNTVYLQMNGLKPEDTAVYYCAAEDRISQSYEYWGQGTQVTVSS | binds | – | – | – | – |
| baffh1 (VHH) VHH: HVQLVDSGGGSVQTGDSLTLSCVQSGRTFRSYAMAWYRQAPGKERELVARISSGYSTNYLDSVKGRFTISRDNDKNTFYLQMNSLRPEDTAVYYCNSALNGRLPGRHWGQGTQVTVSS | binds | – | – | – | – |
| anti-BAFF64 (VHH, Soluble sdAb of about 15 kDa from an immune alpaca library; also called clone 64; anti-BAFF64 sdAb; source: E. coli TG1, periplasm, vector pSJF2, purified (Ni-NTA)) VHH: QVQLVDSGGGLVQAGGSLRLSCVASGALISRRGMGWYRQAPGRQRELVAGISSDGTTNYAQSVEGRFTISRDNAKRSVYLQMNSLKPEDTAVYYCHARTRWKSYWGQGTQVTVSS | – | 319 | 0.000729 | 2290 | inhibition ratio of TACI binding to BAFF at 100 ug/mL sdAb [2]: 31%; inhibitory ratio of BAFF-induced (750 ng/mL) Raji cell proliferation, CCK-8 assay, sdAb 0-100 ug/mL; value at 100 ug/mL [3]: 55% |
| anti-BAFFG3 (VHH, Soluble sdAb of about 15 kDa from an immune alpaca library; also called clone G3; anti-BAFFG3 sdAb; source: E. coli TG1, periplasm, vector pSJF2, purified (Ni-NTA)) VHH: HVQLVDSGGGLVAGGSLRLSCAASGRTFSMSAVAWFRQAPGKEREFVAAISKSSISTYYADSVKGRFTISRDNARNTVNLQMNSLKPEDTAVYYCNSALNGRLPGRHWGQGTQVTVSS | – | 823 | 0.00239 | 2900 | inhibition ratio of BCMA binding to BAFF at 500 ug/mL sdAb [5]: 33% |
| anti-BAFF52 (VHH, Soluble sdAb of about 15 kDa from an immune alpaca library; also called clone 52; anti-BAFF52 sdAb; source: E. coli TG1, periplasm, vector pSJF2, purified (Ni-NTA)) VHH: HVQLVDSGGGLVQAGGSLRLSCAASGRSFKNYHMGWFRQAPGKEREFVAAINGRGSRTKYADSVKGRFTISRDNAERTVRLEMNSLKPEDTAVYYCAAGGPEFYRGRLEDYAYWGPGTQVTVSS | – | 3180 | 0.0182 | 5710 | – |
